Experiment: melting temperature; melt of duplexes
Conditions: sodium 0.0675 M; strand 1 µM
Substance “CGACGTGCGTAATGTGCTG+CAGCACATTAAGCACGTCG ((((((((.((((((((((+)))))))))).))))))))” has a Tm of 56.9 °C.
Substance “CGACGTGCTTTATGTGCTG+CAGCACATGGGGCACGTCG ((((((((...((((((((+))))))))...))))))))” has a Tm of 51 °C.
Work on “CGACGTGCCTGATGTGCTG+CAGCACATAAAGCACGTCG ((((((((.(.((((((((+)))))))).).))))))))” yielded a Tm of 51.7 °C.
For “CGACGTGCCGAATGTGCTG+CAGCACATGCCGCACGTCG ((((((((.(.((((((((+)))))))).).))))))))”, the Tm was 51.5 °C.
“CGACGTGCCTGATGTGCTG+CAGCACATTTCGCACGTCG ((((((((...((((((((+))))))))...))))))))” showed a Tm of 48.2 °C.
Substance “CGACGTGCGAAATGTGCTG+CAGCACATATAGCACGTCG ((((((((.(.((((((((+)))))))).).))))))))” has a Tm of 54.3 °C.
For “CGACGTGCAAGATGTGCTG+CAGCACATGTCGCACGTCG ((((((((.(.((((((((+)))))))).).))))))))”, the Tm was 51.3 °C.
For “CGACGTGCTATATGTGCTG+CAGCACATGTCGCACGTCG ((((((((.(.((((((((+)))))))).).))))))))”, the Tm was 51.4 °C.
With “CGACGTGCTTGATGTGCTG+CAGCACATACTGCACGTCG ((((((((...((((((((+))))))))...))))))))” the Tm was 50.4 °C.
“CGACGTGCTTGATGTGCTG+CAGCACATGCCGCACGTCG ((((((((...((((((((+))))))))...))))))))” gave a Tm of 47.8 °C.
For “CGACGTGCCATATGTGCTG+CAGCACATGCTGCACGTCG ((((((((...((((((((+))))))))...))))))))”, the Tm was 46.7 °C.
In the case of “CGACGTGCCAAATGTGCTG+CAGCACATCGAGCACGTCG ((((((((...((((((((+))))))))...))))))))”, the Tm is reported as 49.6 °C.
With “CGACGTGCTGAATGTGCTG+CAGCACATAGTGCACGTCG ((((((((...((((((((+))))))))...))))))))” the Tm was 45.3 °C.
In the case of “CGACGTGCAATATGTGCTG+CAGCACATTAAGCACGTCG ((((((((...((((((((+))))))))...))))))))”, the Tm is reported as 50.1 °C.
“CGACGTGCGGAATGTGCTG+CAGCACATACAGCACGTCG ((((((((.(.((((((((+)))))))).).))))))))” gave a Tm of 54.9 °C.
With “CGACGTGCAGTATGTGCTG+CAGCACATCACGCACGTCG ((((((((...((((((((+))))))))...))))))))” the Tm was 50.9 °C.
“CGACGTGCTCAATGTGCTG+CAGCACATGGCGCACGTCG ((((((((.(.((((((((+)))))))).).))))))))” gave a Tm of 51.8 °C.
“CGACGTGCTGGATGTGCTG+CAGCACATGTTGCACGTCG ((((((((...((((((((+))))))))...))))))))” showed a Tm of 51.4 °C.
“CGACGTGCTATATGTGCTG+CAGCACATGCCGCACGTCG ((((((((...((((((((+))))))))...))))))))” gave a Tm of 48.9 °C.
“CGACGTGCCGCATGTGCTG+CAGCACATCTCGCACGTCG ((((((((...((((((((+))))))))...))))))))” showed a Tm of 47.8 °C.
“CGACGTGCCTTATGTGCTG+CAGCACATGGTGCACGTCG ((((((((...((((((((+))))))))...))))))))” gave a Tm of 46 °C.
In the case of “CGACGTGCACTATGTGCTG+CAGCACATGGTGCACGTCG ((((((((((.((((((((+)))))))).))))))))))”, the Tm is reported as 56.6 °C.
“CGACGTGCGATATGTGCTG+CAGCACATTCTGCACGTCG ((((((((...((((((((+))))))))...))))))))” showed a Tm of 51.5 °C.
With “CGACGTGCTGAATGTGCTG+CAGCACATCAGGCACGTCG ((((((((...((((((((+))))))))...))))))))” the Tm was 53.5 °C.
Work on “CGACGTGCAATATGTGCTG+CAGCACATTACGCACGTCG ((((((((...((((((((+))))))))...))))))))” yielded a Tm of 49.7 °C.
With “CGACGTGCGGCATGTGCTG+CAGCACATCCAGCACGTCG ((((((((.(.((((((((+)))))))).).))))))))” the Tm was 53.9 °C.
In the case of “CGACGTGCTTCATGTGCTG+CAGCACATGTGGCACGTCG ((((((((..(((((((((+)))))))))..))))))))”, the Tm is reported as 54.8 °C.
In the case of “CGACGTGCGGGATGTGCTG+CAGCACATTGAGCACGTCG ((((((((...((((((((+))))))))...))))))))”, the Tm is reported as 55.3 °C.
Substance “CGACGTGCTTAATGTGCTG+CAGCACATGGTGCACGTCG ((((((((...((((((((+))))))))...))))))))” has a Tm of 50.3 °C.
For “CGACGTGCTAGATGTGCTG+CAGCACATCCGGCACGTCG ((((((((..(((((((((+)))))))))..))))))))”, the Tm was 55.4 °C.
In the case of “CGACGTGCAATATGTGCTG+CAGCACATGAGGCACGTCG ((((((((...((((((((+))))))))...))))))))”, the Tm is reported as 51.3 °C.
“CGACGTGCTGTATGTGCTG+CAGCACATTTTGCACGTCG ((((((((...((((((((+))))))))...))))))))” gave a Tm of 49.2 °C.
In the case of “CGACGTGCCGTATGTGCTG+CAGCACATGTTGCACGTCG ((((((((...((((((((+))))))))...))))))))”, the Tm is reported as 48.3 °C.
For “CGACGTGCGATATGTGCTG+CAGCACATTGAGCACGTCG ((((((((...((((((((+))))))))...))))))))”, the Tm was 57.2 °C.
For “CGACGTGCGTCATGTGCTG+CAGCACATGAGGCACGTCG ((((((((.((((((((((+)))))))))).))))))))”, the Tm was 60.7 °C.
For “CGACGTGCGGAATGTGCTG+CAGCACATGTAGCACGTCG ((((((((...((((((((+))))))))...))))))))”, the Tm was 60.4 °C.
Work on “CGACGTGCGTTATGTGCTG+CAGCACATTCGGCACGTCG ((((((((...((((((((+))))))))...))))))))” yielded a Tm of 49.8 °C.
In the case of “CGACGTGCTCCATGTGCTG+CAGCACATTCCGCACGTCG ((((((((...((((((((+))))))))...))))))))”, the Tm is reported as 45.6 °C.
For “CGACGTGCCGAATGTGCTG+CAGCACATCTTGCACGTCG ((((((((...((((((((+))))))))...))))))))”, the Tm was 48.8 °C.
“CGACGTGCTGTATGTGCTG+CAGCACATATTGCACGTCG ((((((((..(((((((((+)))))))))..))))))))” showed a Tm of 52.7 °C.
With “CGACGTGCGGAATGTGCTG+CAGCACATCTTGCACGTCG ((((((((...((((((((+))))))))...))))))))” the Tm was 50.8 °C.
“CGACGTGCACCATGTGCTG+CAGCACATGAGGCACGTCG ((((((((..(((((((((+)))))))))..))))))))” gave a Tm of 53.9 °C.
In the case of “CGACGTGCTACATGTGCTG+CAGCACATTACGCACGTCG ((((((((...((((((((+))))))))...))))))))”, the Tm is reported as 48.7 °C.
Substance “CGACGTGCTCCATGTGCTG+CAGCACATAACGCACGTCG ((((((((...((((((((+))))))))...))))))))” has a Tm of 47 °C.
For “CGACGTGCTCAATGTGCTG+CAGCACATAAAGCACGTCG (((((((((..((((((((+))))))))..)))))))))”, the Tm was 52.1 °C.
Substance “CGACGTGCGTGATGTGCTG+CAGCACATTGGGCACGTCG ((((((((...((((((((+))))))))...))))))))” has a Tm of 52.3 °C.
“CGACGTGCGATATGTGCTG+CAGCACATGCTGCACGTCG ((((((((...((((((((+))))))))...))))))))” showed a Tm of 49.8 °C.
In the case of “CGACGTGCGCCATGTGCTG+CAGCACATAGAGCACGTCG ((((((((.(.((((((((+)))))))).).))))))))”, the Tm is reported as 54.4 °C.
For “CGACGTGCCATATGTGCTG+CAGCACATCCGGCACGTCG (((((((((..((((((((+))))))))..)))))))))”, the Tm was 52.8 °C.
“CGACGTGCCCAATGTGCTG+CAGCACATAACGCACGTCG ((((((((...((((((((+))))))))...))))))))” showed a Tm of 47.3 °C.
Work on “CGACGTGCTGGATGTGCTG+CAGCACATCAGGCACGTCG ((((((((..(((((((((+)))))))))..))))))))” yielded a Tm of 56.7 °C.
“CGACGTGCTCGATGTGCTG+CAGCACATTTCGCACGTCG ((((((((...((((((((+))))))))...))))))))” gave a Tm of 48.1 °C.
With “CGACGTGCGAGATGTGCTG+CAGCACATCACGCACGTCG (((((((((.(((((((((+))))))))).)))))))))” the Tm was 61.4 °C.
“CGACGTGCGTGATGTGCTG+CAGCACATGTAGCACGTCG ((((((((...((((((((+))))))))...))))))))” gave a Tm of 53.3 °C.
“CGACGTGCTGGATGTGCTG+CAGCACATCAAGCACGTCG (((((((((.(((((((((+))))))))).)))))))))” gave a Tm of 59 °C.
For “CGACGTGCGGTATGTGCTG+CAGCACATGCTGCACGTCG ((((((((.(.((((((((+)))))))).).))))))))”, the Tm was 56.1 °C.
Substance “CGACGTGCTCCATGTGCTG+CAGCACATGCAGCACGTCG (((((((((.(((((((((+))))))))).)))))))))” has a Tm of 55.3 °C.
“CGACGTGCATCATGTGCTG+CAGCACATGGGGCACGTCG ((((((((..(((((((((+)))))))))..))))))))” gave a Tm of 56.5 °C.
For “CGACGTGCTCTATGTGCTG+CAGCACATATTGCACGTCG ((((((((..(((((((((+)))))))))..))))))))”, the Tm was 50.9 °C.
“CGACGTGCCACATGTGCTG+CAGCACATAAAGCACGTCG ((((((((...((((((((+))))))))...))))))))” showed a Tm of 49.1 °C.
Work on “CGACGTGCTGGATGTGCTG+CAGCACATTGTGCACGTCG ((((((((...((((((((+))))))))...))))))))” yielded a Tm of 48.3 °C.
In the case of “CGACGTGCAGGATGTGCTG+CAGCACATAGTGCACGTCG (((((((((..((((((((+))))))))..)))))))))”, the Tm is reported as 50.6 °C.
“CGACGTGCATAATGTGCTG+CAGCACATAACGCACGTCG ((((((((.(.((((((((+)))))))).).))))))))” gave a Tm of 48.8 °C.
Work on “CGACGTGCCGCATGTGCTG+CAGCACATGCAGCACGTCG ((((((((.((((((((((+)))))))))).))))))))” yielded a Tm of 60 °C.
“CGACGTGCCAAATGTGCTG+CAGCACATTTAGCACGTCG ((((((((.((((((((((+)))))))))).))))))))” showed a Tm of 54.4 °C.
“CGACGTGCGGGATGTGCTG+CAGCACATCGAGCACGTCG ((((((((..(((((((((+)))))))))..))))))))” showed a Tm of 58.1 °C.
“CGACGTGCTCAATGTGCTG+CAGCACATGGGGCACGTCG ((((((((.(.((((((((+)))))))).).))))))))” showed a Tm of 55 °C.
In the case of “CGACGTGCCTGATGTGCTG+CAGCACATGATGCACGTCG ((((((((.(.((((((((+)))))))).).))))))))”, the Tm is reported as 49.4 °C.
With “CGACGTGCCTAATGTGCTG+CAGCACATCATGCACGTCG ((((((((.(.((((((((+)))))))).).))))))))” the Tm was 48.5 °C.
With “CGACGTGCACCATGTGCTG+CAGCACATAGGGCACGTCG ((((((((.(.((((((((+)))))))).).))))))))” the Tm was 51.5 °C.
For “CGACGTGCCCCATGTGCTG+CAGCACATGATGCACGTCG ((((((((..(((((((((+)))))))))..))))))))”, the Tm was 51.8 °C.
With “CGACGTGCGCGATGTGCTG+CAGCACATGATGCACGTCG ((((((((...((((((((+))))))))...))))))))” the Tm was 51 °C.
